Assay [1] has as its target PDCoV S1 protein (porcine deltacoronavirus (PDCoV)). Kind of assay: ELISA. Background: ELISA stands for enzyme-linked immunosorbent assay.
Assay [2] has as its target PDCoV S2 protein (porcine deltacoronavirus (PDCoV)). Kind of assay: ELISA.

Turning to “Griffithsin (from UniProt P84801 1-121) (natural protein)”, the OD450 reached in ELISA in assay [1] stood at 3.68 OD450; in assay [2], 1.93 OD450.

Values taken from PMC8660055.
